Data set [1] deals with the molecule itself. Nature of the data set: SEC-MALS. (In general: Size exclusion chromatography separates by hydrodynamic size, large species first.)
Data set [2] concerns the molecule itself. In words: cross-linking.
Data set [3] deals with T1, HpDnaB replicative helicase (Helicobacter pylori, UniProt O25916 1-488).
T1 sequence: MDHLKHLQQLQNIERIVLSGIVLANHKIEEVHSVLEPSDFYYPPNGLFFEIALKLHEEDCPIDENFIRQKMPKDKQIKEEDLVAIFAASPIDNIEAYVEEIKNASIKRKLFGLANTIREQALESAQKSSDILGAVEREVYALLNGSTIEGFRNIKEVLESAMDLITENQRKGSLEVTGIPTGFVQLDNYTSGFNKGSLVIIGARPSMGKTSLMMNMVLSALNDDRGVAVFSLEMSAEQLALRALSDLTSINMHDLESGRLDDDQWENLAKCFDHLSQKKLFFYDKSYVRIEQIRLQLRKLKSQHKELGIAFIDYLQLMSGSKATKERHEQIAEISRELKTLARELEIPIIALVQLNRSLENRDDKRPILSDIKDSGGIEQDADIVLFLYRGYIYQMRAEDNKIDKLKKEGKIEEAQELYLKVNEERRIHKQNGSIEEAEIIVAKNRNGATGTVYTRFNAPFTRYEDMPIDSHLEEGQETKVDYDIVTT
In words: fluorescence anisotropy. Background: In fluorescence polarisation assays a small probe gives low polarisation when free and higher when bound to something large.

Data set [4] concerns the target T1, HpDnaB replicative helicase. Nature of the data set: fluorescence anisotropy. This is another data set of the same source.
For data set [5], the target named is T2, HpDnaB replicative helicase;HpDnaG helicase-binding domain (HpDnaGHBD) (Helicobacter pylori;Helicobacter pylori …, UniProt O25916;P56064 1-488;415-559, |).
T2 sequence 1: T1 sequence
T2 sequence 2: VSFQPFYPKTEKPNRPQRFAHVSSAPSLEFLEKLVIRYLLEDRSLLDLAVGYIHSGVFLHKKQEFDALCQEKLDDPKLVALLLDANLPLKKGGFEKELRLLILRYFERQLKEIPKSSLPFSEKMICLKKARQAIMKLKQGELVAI
In words: fluorescence anisotropy.

Data set [6] deals with T1, HpDnaB replicative helicase. In words: fluorescence anisotropy. The source holds these as a separate data set.
For data set [7], the target named is T2, HpDnaB replicative helicase;HpDnaG …. In words: fluorescence anisotropy. This is another data set of the same source.
The target in data set [8] is T1, HpDnaB replicative helicase. Nature of the data set: fluorescence anisotropy. The source holds these as a separate data set.

Changes are numbered by the printed parent chain. Numbers in names are those of the source. Read-outs that look alike come from different tables or passages of the source.

B1: HpDnaB^Δ9 (N-terminal deletion mutant starting at residue 10) (domain or fragment, Helicobacter pylori, UniProt O25916 10-488, looked up)
chain: LQNIERIVLSGIVLANHKIEEVHSVLEPSDFYYPPNGLFFEIALKLHEEDCPIDENFIRQKMPKDKQIKEEDLVAIFAASPIDNIEAYVEEIKNASIKRKLFGLANTIREQALESAQKSSDILGAVEREVYALLNGSTIEGFRNIKEVLESAMDLITENQRKGSLEVTGIPTGFVQLDNYTSGFNKGSLVIIGARPSMGKTSLMMNMVLSALNDDRGVAVFSLEMSAEQLALRALSDLTSINMHDLESGRLDDDQWENLAKCFDHLSQKKLFFYDKSYVRIEQIRLQLRKLKSQHKELGIAFIDYLQLMSGSKATKERHEQIAEISRELKTLARELEIPIIALVQLNRSLENRDDKRPILSDIKDSGGIEQDADIVLFLYRGYIYQMRAEDNKIDKLKKEGKIEEAQELYLKVNEERRIHKQNGSIEEAEIIVAKNRNGATGTVYTRFNAPFTRYEDMPIDSHLEEGQETKVDYDIVTT
Turning to B1, the “stoichiometry N” value in data set [1] was approximately 6; in data set [2], 6.

On to TTTTTTTTTTTTTTTTTTTTTTTTTTTTTTTTTTTTTTTTTTTTTTTTTT (ssDNA) [50dT], for which the Kd turned out to be 70 ± 6 nM in data set [3] and 1.8 ± 0.2 nM in data set [4].

In the case of TTTTTTTTTTTTTTTTTTTT (ssDNA) [20dT], the dissociation constant Kd in data set [5] came to 8.3 ± 0.6 nM; in data set [6], 15 ± 1 nM; in data set [7], 1 ± 0.1 nM; in data set [8], 3.1 ± 0.1 nM.

B2: HpDnaB^L4A (enzyme, Helicobacter pylori, UniProt O25916 1-488, looked up)
chain: T1 sequence with L4A
Take B2: the binding result in data set [1] is “binds”.

B3: HpDnaB^E80A (enzyme, Helicobacter pylori, UniProt O25916 1-488, looked up)
chain: T1 sequence with E80A
As for B3, the binding result in data set [1] is reported as “binds”.

B4: HpDnaB^Q8A (enzyme, Helicobacter pylori, UniProt O25916 1-488, looked up)
chain: T1 sequence with Q8A
In the case of B4, the “stoichiometry N” value in data set [2] amounted to 6.

For orientation: stoichiometry N means a count of units in the complex or per binding partner. For orientation: Kd means the equilibrium constant for the complex coming apart. Read a high Kd as weaker binding.
